Measurements from paper PMC12052392 (PLOS Pathogens, 2025).

Target: SARS-CoV-2 S2 (T1076-Q1208) antigen, trimeric S2 fusion-core-based antigen (SARS-CoV-2 prototype (MN908947.3), UniProt P0DTC2, biotin (Biotinylation Kit))
Assay: BLI
Conditions: both partners purified

B1: anti-SH neutralizing antibody CV3-25 (antibody, V domains shown)
VH: EVQLVESGAEVKKPGESLKISCKGSGYTFTRYWIGWVRQMPGKGLEWMGIIYPGDSDTRYSPSFQGHVTISADKSISTAYLQWNSLKASDTAMYYCARLPQYCSNGVCQRWFDPWGQGTLVTVSS
VL: EIVLTQSPSSVSASVGDRVTITCRASQGISSWLAWYQQKPGKAPKLLIYAASSLQSGVPSRFSGSGSGTDFTLTISSLQPEDFATYYCQQGNSFPYTFGQGTNLEIK
B1: binds.
